Tests used:
human 4-1BB = target: T1, human 4-1BB (human, UniProt Q07011 24-255); assay: flow cytometry (FACS) on human 41BB transfected CHO cells
T1 construct: whole, on cells; also called human 41BB transfected CHO cells
Method: (§1) The tetra-specific GNC antibodies listed in TABLEs 3 and 4 were tested for binding to Chinese hamster ovary cells (CHO) cells stably expressing a full-length human ROR1. Antibodies were prepared at 2× final concentration and titrated 1:5 across 3 wells of a 96 well plate in 50 ul of PBS/2% FBS and then 5,000 ROR1-CHO cells in 50 ul PBS/2% FBS were added. This mixture was incubated for 30 minutes on ice, washed once with 200 ul PBS/2% FBS, and then the secondary antibody PE Goat anti-Human IgG Fc at 1:1000 dilution of stock was added, and this mixture was incubated for 30 minutes on ice. Cells were washed 2×200 ul PBS/2% FBS, resuspended in 50 ul PBS/2% FBS and analyzed on a BD LSRFORTESSA and the binding profile is shown in FIG. 5. All of the tetra-specific GNC antibodies except for the control SI-27E12 contain a 41BB binding domain, 460C3, 420H5, or 466F6 and bound to 41BB expressing CHO cells with varying intensity.

human PD-L1 = target: T2, human PD-L1 (human, UniProt Q9NZQ7 19-290); assay: flow cytometry (FACS) on human PDL1 transfected CHO cells
T2 construct: whole, on cells; also called human PDL1 transfected CHO cells
T2 sequence (Q9NZQ7 19-290): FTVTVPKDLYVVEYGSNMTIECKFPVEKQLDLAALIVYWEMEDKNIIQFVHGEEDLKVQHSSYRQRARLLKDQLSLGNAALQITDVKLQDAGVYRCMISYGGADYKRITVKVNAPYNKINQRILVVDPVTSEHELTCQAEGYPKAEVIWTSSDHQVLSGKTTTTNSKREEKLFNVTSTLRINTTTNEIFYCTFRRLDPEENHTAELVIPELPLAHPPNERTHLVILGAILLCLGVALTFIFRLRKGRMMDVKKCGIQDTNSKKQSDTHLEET

human ROR1 = target: T3, human ROR1 (human, UniProt Q01973 30-937); assay: flow cytometry (FACS) on CHO cells stably expressing full-length human ROR1
T3 construct: whole, on cells; also called full-length human ROR1 on CHO cells; ROR1-CHO
T3 sequence (Q01973 30-937): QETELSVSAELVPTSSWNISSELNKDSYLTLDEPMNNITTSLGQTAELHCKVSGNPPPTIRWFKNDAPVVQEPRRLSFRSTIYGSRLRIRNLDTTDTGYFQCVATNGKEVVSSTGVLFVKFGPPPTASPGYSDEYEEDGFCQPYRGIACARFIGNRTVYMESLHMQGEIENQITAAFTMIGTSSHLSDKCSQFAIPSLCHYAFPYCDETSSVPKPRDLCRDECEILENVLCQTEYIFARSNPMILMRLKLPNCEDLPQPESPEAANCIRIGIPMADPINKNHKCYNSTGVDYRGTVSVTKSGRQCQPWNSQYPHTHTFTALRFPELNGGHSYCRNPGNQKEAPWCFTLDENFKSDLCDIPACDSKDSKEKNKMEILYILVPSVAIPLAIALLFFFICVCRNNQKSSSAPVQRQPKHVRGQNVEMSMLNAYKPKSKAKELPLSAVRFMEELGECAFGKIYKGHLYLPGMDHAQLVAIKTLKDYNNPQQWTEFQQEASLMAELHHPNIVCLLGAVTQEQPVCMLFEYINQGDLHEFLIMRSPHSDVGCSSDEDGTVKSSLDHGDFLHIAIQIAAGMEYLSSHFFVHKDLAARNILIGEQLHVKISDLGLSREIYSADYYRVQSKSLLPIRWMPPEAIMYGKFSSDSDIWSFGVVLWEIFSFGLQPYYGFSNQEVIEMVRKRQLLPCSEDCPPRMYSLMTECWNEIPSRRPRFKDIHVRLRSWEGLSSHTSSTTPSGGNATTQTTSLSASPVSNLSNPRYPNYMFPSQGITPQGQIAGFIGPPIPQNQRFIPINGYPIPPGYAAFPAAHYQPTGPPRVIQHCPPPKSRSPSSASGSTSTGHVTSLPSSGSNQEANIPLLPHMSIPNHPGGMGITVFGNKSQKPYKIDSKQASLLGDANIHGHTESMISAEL
Method: as §1, with “4.” for “5. All of the tetra-specific GNC antibodies except for the control SI-27E12 contain a 41BB binding domain, 460C3, 420H5, or 466F6 and bound to 41BB expressing CHO cells with varying intensity.”

T1 sequence (Q07011 24-255): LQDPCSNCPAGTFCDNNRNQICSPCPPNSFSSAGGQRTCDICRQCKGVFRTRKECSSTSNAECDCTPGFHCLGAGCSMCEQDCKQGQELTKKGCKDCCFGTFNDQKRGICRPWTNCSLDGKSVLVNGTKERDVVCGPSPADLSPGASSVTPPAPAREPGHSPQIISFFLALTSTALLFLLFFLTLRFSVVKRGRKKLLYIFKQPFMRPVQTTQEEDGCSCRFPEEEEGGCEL

| binding result (human 4-1BB) | binding result (human PD-L1) | binding result (human ROR1) | Binder |
| --- | --- | --- | --- |
| binds | binds | binds | SI-35E18 (460C3-L1H1-scFv x PL230C6-Fab x 323H7-H4L1-scFv x 284A10-H1L1-scFv) (antibody, Tetra-specific (4-1BB x PD-L1 x ROR1 x CD3) antibody with human IgG1 null2 Fc; also called tetra-specific GNC antibody) heavy: not shown light: AYDMTQSPSSVSASVGDRVTIKCQASEDIYSFLAWYQQKPGKAPKLLIHSASSLASGVPSRFSGSGSGTDFTLTISSLQPEDFATYYCQQGYGKNNVDNAFGGGTKVEIKRTVAAPSVFIFPPSDEQLKSGTASVVCLLNNFYPREAKVQWKVDNALQSGNSQESVTEQDSKDSTYSLSSTLTLSKADYEKHKVYACEVTHQGLSSPVTKSFNRGEC |
| binds | binds | binds | SI-35E20 (466F6-L5H2-scFv x PL230C6-Fab x 323H7-H4L1-scFv x 284A10-H1L1-scFv) (antibody, Tetra-specific (4-1BB x PD-L1 x ROR1 x CD3) antibody with human IgG1 null2 Fc; also called tetra-specific GNC antibody) heavy: not shown light: AYDMTQSPSSVSASVGDRVTIKCQASEDIYSFLAWYQQKPGKAPKLLIHSASSLASGVPSRFSGSGSGTDFTLTISSLQPEDFATYYCQQGYGKNNVDNAFGGGTKVEIKRTVAAPSVFIFPPSDEQLKSGTASVVCLLNNFYPREAKVQWKVDNALQSGNSQESVTEQDSKDSTYSLSSTLTLSKADYEKHKVYACEVTHQGLSSPVTKSFNRGEC |

Reference: patent US20210024630A1 (SYSTIMMUNE, published 2021)
